Two molecules from US20230285589A1, “LIPOSOME COMPLEX FOR CANCER TREATMENT, COMPRISING NOVEL CD47 BINDER AND POLYNUCLEOTIDE” (priority 2020, published 2023) can be followed below.

Assay [1] can be described thus: 5'-nucleotidase preferred substrate (Km), dTMP. Type of assay: biochemical. The following applies: according to Table 4.
The target of another assay is recombinant CD47 protein (Homo sapiens, UniProt Q08722). Description: SPR, CD47 conjugated to CM5 chip. The following applies: 250 RU CD47, 1:1 binding model. On the procedure:
Specifically, the recombinant CD47 protein was conjugated to the surface of the CM5 chip by a target SPR reaction of 250 RU through an EDC-NHS reaction to be used, and for HBS-P, the sensogram obtained through a process of association for 3 minutes and dissociation for 10 minutes at a flow rate of 30 μL/minutes was analyzed with the BiaEvaluation software using a 1:1 binding model and global fitting.
(In general: SPR reads the build-up and loss of mass on a sensor chip optically.)

recombinant CD47 protein, sequence (Q08722 19-323): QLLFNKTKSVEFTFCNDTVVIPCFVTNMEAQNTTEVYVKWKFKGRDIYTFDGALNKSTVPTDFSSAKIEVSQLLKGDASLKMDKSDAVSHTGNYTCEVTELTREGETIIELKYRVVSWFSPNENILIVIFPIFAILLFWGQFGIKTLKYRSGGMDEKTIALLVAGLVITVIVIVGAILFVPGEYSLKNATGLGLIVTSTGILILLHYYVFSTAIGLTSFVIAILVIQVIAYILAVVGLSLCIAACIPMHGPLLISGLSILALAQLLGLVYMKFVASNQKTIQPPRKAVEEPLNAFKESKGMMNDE

B1: NT5M: Human mitochondrial 5′-deoxyribonucleotidase (SEQ ID NO: 32) (protein)
chain: MGGRALRVLVDMDGVLADFEGGFLRKFRARFPDQPFIALEDRRGFWVSEQYGRLRPGLSEKAISIWESKNFFFELEPLPGAVEAVKEMASLQNTDVFICTSPIKMFKYCPYEKYAWVEKYFGPDFLEQIVLTRDKTVVSADLLIDDRPDITGAEPTPSWEHVLFTACHNQHLQLQPPRRRLHSWADDWKAILDSKRPC
modifications: NT5M
Turning to B1, the “affinity for dTMP, times lower compared to T001” value in assay [1] came out at 30 times.

B2: SV4: CD47 binder of SEQ ID NO: 2; SV1 with lysines at positions 11 and 104 substituted with leucine (protein)
chain: MEEELQIIQPDLSVSVAAGESAILHCTITSLFPVGPIQWFRGAGPARVLIYNQRQGPFPRVTTVSETTKRENMDFSISISNITPADAGTYYCIKFRKGSPDTEFLSGAGTELSVRAKPS
modifications: CD47 binder SV4
For B2, in the assay with recombinant CD47 protein, the ka amounted to 164000 M⁻¹ s⁻¹ and the kd turned out to be 0.000275 s⁻¹.
